Three molecules from patent US20200399344A1 (SHATTUCK LABS, published 2020) can be followed below.

Assay [1] concerns the target T1, recombinant human CD28-Fc (rhCD28-Fc) protein (human, UniProt P10747 19-152).
T1 construct: not shown: Fc
The assay can be described thus: dual ELISA; coat rhCD28-Fc, hCD80-fc-NKG2a titrated, detection HLA-E-His, Anti 6x-His-HRP; the signal needs both bindings. The protocol: To understand whether the hCD80-Fc-NKG2A chimeric protein can binds simultaneously to both hCD28 and HLA-E, the following ELISA experiment was carried out. Briefly, and recombinant hCD28 (rhCD28-Fc) protein was coated on plates. Increasing amounts of the hCD80-Fc-NKG2A chimeric protein was added to the plates for capture by the recombinant human CD28-Fc (rhCD28-Fc) protein. Further, recombinant HLA-E (HLA-E-His) protein was added to the plate for capture by hCD80-Fc-NKG2A chimeric protein. The binding of the HLA-E-His protein was detected using an anti-His 6× HRP antibody.
Background: In an ELISA, binding on a coated surface is turned into a signal by an enzyme label.

Assay [2] deals with T2, recombinant HLA-E-His protein (human, UniProt P13747 22-305, limits assumed).
T2 construct: also called recombinant HLA-E (HLA-E-His); not shown: His tag
T2 sequence (P13747 22-305 limits assumed): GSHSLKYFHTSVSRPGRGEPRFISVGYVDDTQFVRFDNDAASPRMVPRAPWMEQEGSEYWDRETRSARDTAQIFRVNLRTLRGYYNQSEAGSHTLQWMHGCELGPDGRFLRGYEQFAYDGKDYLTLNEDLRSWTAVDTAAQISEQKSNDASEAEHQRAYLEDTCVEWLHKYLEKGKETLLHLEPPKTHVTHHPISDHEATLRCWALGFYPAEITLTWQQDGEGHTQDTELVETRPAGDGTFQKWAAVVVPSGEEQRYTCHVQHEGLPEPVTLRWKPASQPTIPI
The assay can be described thus: ELISA: the chimeric protein is the titrated coat (1:3), detection HLA-E-His (Novus NBP2-47435PEP), HRP Anti-6x-His-HRP. The protocol:
In a complementary experiment, increasing amounts of the hCD48-Fc-NKG2A, hCD58-Fc-NKG2A, and hCD80-Fc-NKG2A chimeric proteins or a negative control protein was coated on plates. Recombinant HLA-E-His protein was added to the plates for capture by the plate-bound chimeric proteins or the negative control protein. The captured HLA-E-His protein was detected using an anti-6×-His-HRP antibody.

Assay [3] concerns the target T3, recombinant human CD28-His (rhCD28-His) (human, UniProt P10747 19-152).
T3 construct: also called Human CD28-His protein; recombinant CD28 protein; not shown: His tag
The assay can be described thus: ELISA: coat rhCD28-His (Acro), detection Anti-hFc-HRP. Here is the method: To understand whether the CD80 and CD86 parts of the hCD80-Fc-NKG2A and hCD86-Fc-NKG2A chimeric protein can bind CD28, ELISA-based assays were performed. Briefly, recombinant CD28 protein was coated on plates and increasing amounts of the hCD80-Fc-NKG2A, hCD86-Fc-NKG2A, and mCD48-Fc-NKG2A chimeric proteins, and recombinant human CD86-Fc (rhCD86-Fc) protein was added to the plates for capture by the plate-bound recombinant CD28 protein. The mCD48-Fc-NKG2A chimeric protein, and recombinant human CDrhCD86-Fc protein was used as negative and positive controls, respectively. The chimeric proteins bound to the recombinant CD28 protein was detected using an anti-human Fc HRP.

The target of assay [4] is T4, anti-mFc IgG antibody (plate-bound).
T4 construct: also called anti-Fc antibody
The experiment in a line: ELISA: coat Anti-mFc (IgG) Jax #115-006-008, detection Anti-mFc (H+L) HRP. Here is the method: To understand whether the Fc linkers from the native chimeric proteins can be accessed by anti-mouse Fc antibodies, ELISA-based assays were performed. For these assays, an anti-mFc IgG antibody was coated on plates and increasing amounts of the mPD-1-Fc-NKG2A and mSLAMF6-Fc-NKG2a chimeric proteins were added to the plates for capture by the plate-bound anti-mFc IgG antibody. The binding of the mPD-1-Fc-NKG2A and mSLAMF6-Fc-NKG2a chimeric proteins bound to the anti-mFc IgG antibody were detected using an anti-mFc HRP. An IgG antibody mouse Fc was used to generate a standard curve. mFc IgG was used as a positive control.

In assay [5] the target is T5, recombinant PD-L1 protein (mPD-L1-His) (mouse, UniProt Q9EP73 19-238).
T5 construct: not shown: His tag
T5 sequence (Q9EP73 19-238 limits assumed): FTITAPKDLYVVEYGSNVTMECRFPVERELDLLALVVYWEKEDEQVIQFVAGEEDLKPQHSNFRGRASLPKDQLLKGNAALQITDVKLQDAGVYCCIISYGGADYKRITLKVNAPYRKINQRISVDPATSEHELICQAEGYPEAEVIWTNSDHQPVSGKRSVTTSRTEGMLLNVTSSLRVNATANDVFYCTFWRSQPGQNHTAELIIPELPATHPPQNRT
The experiment in a line: ELISA; mPD1-Fc-NKG2a coated in rising amounts, detection mPD-L1-His, Anti-His-6x-HRP. Here is the method:
Programmed death-ligand 1 (PD-L1) is a PD-1 ligand. To understand whether the PD-1 parts of the PD-1-Fc-NKG2A chimeric protein can bind PD-L1, ELISA-based assays were performed. […] The chimeric protein bound to the recombinant PD-L1 protein was detected using an anti-His-6× HRP.

Assay [6] concerns the target T6, recombinant mouse PD-L1-Fc (rmPD-L1-Fc) (mouse, UniProt Q9EP73 19-238).
T6 construct: also called rPD-L1-Fc; not shown: Fc
The assay can be described thus: dual ELISA; coat mPDL1-Fc, mPD1-Fc-NKG2a titrated, detection HLA-E-His, Anti-His-6x-HRP; the signal needs both bindings. Here is the method: Increasing amounts of the mPD-1-Fc-NKG2A chimeric protein was added and detected using HLA-E-His. A chimeric protein comprising ECD of a type II transmembrane protein other than NKG2A was used as a negative control.
To understand whether the PD-1-Fc-NKG2A chimeric protein can binds simultaneously to both PD-L1 and HLA-E, the following ELISA experiment was carried out. Briefly, and recombinant PD-L1 (rPD-L1-Fc) protein was coated on plates. Increasing amounts of the PD-1-Fc-NKG2A chimeric protein was added to the plates for capture by the rPD-L1-Fc protein. Further, recombinant HLA-E (HLA-E-His) protein was added to the plate for capture by PD-1-Fc-NKG2A chimeric protein. The binding of the HLA-E-His protein was detected using an anti-His 6× HRP antibody.

For assay [7], the target named is T7, hPD-L1 expressed on CHO-K1/hPD-L1 cells (human, UniProt Q9NZQ7 19-290).
T7 construct: whole, on cells
T7 sequence (Q9NZQ7 19-290): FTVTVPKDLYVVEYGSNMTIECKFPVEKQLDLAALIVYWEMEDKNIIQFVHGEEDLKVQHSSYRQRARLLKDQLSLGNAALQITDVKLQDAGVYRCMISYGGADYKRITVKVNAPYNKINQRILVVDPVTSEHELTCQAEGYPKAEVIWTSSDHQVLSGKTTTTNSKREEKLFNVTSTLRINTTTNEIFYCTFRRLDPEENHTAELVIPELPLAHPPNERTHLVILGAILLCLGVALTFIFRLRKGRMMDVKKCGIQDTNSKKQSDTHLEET
The assay can be described thus: flow cytometry cell binding assay, CHO-K1-Luc cells, detection Anti-hARC-PE.

Assay [8] has as its target T8, PD-L1, plate-bound (Example 8) (Homo sapiens (Human), UniProt Q9NZQ7 19-238).
T8 construct: not shown: The Fc carrier of the vendor's hPD-L1-Fc (R&D) and any linker
The experiment in a line: Dual ELISA (capturing with PDL1): coat hPDL1-Fc (R&D), detect hHLA-E (Novus), HRP Anti-6X His.

The target of assay [9] is T9, recombinant hPD-L1 (hPD-L1-Fc) protein (human, UniProt Q9NZQ7 19-239).
T9 construct: not shown: Fc
T9 sequence (Q9NZQ7 19-239 limits assumed): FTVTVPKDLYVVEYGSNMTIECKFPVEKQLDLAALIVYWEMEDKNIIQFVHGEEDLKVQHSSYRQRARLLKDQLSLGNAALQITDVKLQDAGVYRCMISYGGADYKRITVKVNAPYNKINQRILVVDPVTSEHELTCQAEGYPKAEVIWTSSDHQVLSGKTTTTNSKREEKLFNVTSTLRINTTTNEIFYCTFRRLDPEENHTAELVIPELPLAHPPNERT
The assay can be described thus: dual ELISA; coat hPDL1-Fc, hPD1-fc-NKG2a titrated, detection HLA-E-His, Anti-His-6x-HRP; the signal needs both bindings. The protocol:
To understand whether the hPD-1-Fc-NKG2A chimeric protein can binds simultaneously to both hPD-L1 and HLA-E, the following ELISA experiment was carried out. Briefly, and recombinant hPD-L1 (hPD-L1-Fc) protein was coated on plates. Increasing amounts of the hPD-1-Fc-NKG2A chimeric protein was added to the plates for capture by the hPD-L1-Fc protein. Further, recombinant HLA-E (HLA-E-His) protein was added to the plate for capture by hPD-1-Fc-NKG2A chimeric protein. The binding of the HLA-E-His protein was detected using an anti-His 6× HRP antibody.

The target in assay [10] is T2, recombinant HLA-E-His protein. The assay can be described thus: Dual binding ELISA (capturing with HLA-E): coat hHLA-E-His (Novus), detect Anti-hPD1 (Sino), HRP Anti-mFc-HRP. The text has this: As shown in FIG. 9C and FIG. 9D, binding of the hNKG2A domain of the hPD-1-Fc-hNKG2A chimeric protein was characterized by capturing to, respectively, a plate-bound HLA-E. In FIG. 9C, the hPD-1-Fc-hNKG2A chimeric protein was detected using an anti-human PD-1 antibody in conjunction with an HRP conjugated anti-mouse Fc antibody. In FIG. 9D, the hPD-1-Fc-hNKG2A chimeric protein was directly detected via an HRP conjugated anti-mouse Fc antibody.

Assay [11] concerns the target T10, anti-human IgG antibody (plate-bound).
T10 construct: also called anti-human Fc antibody
The assay can be described thus: Fc ELISA: coat Anti-hFc (Jax), detect Anti-hFc-HRP (Jax).

Assay [12] concerns the target T2, recombinant HLA-E-His protein. The experiment in a line: ELISA (single-sided): coat hHLA-E-His (Novus), detect Anti-hFc (JAX); curve rises to about 0.4 at the highest concentration, no plateau. The text has this: As shown in FIG. 9C and FIG. 9D, binding of the hNKG2A domain of the hPD-1-Fc-hNKG2A chimeric protein was characterized by capturing to, respectively, a plate-bound HLA-E. In FIG. 9C, the hPD-1-Fc-hNKG2A chimeric protein was detected using an anti-human PD-1 antibody in conjunction with an HRP conjugated anti-mouse Fc antibody. In FIG. […]

T1 sequence (P10747 19-152 limits assumed): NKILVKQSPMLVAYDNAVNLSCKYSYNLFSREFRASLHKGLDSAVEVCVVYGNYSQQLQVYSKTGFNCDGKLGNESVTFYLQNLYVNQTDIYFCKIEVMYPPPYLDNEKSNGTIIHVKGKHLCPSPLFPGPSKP
T3 sequence (P10747 19-152 limits assumed): as above
T6 sequence (Q9EP73 19-238 limits assumed): as the sequence (Q9EP73 19-238 limits assumed) above
T8 sequence (Q9NZQ7 19-238 limits assumed): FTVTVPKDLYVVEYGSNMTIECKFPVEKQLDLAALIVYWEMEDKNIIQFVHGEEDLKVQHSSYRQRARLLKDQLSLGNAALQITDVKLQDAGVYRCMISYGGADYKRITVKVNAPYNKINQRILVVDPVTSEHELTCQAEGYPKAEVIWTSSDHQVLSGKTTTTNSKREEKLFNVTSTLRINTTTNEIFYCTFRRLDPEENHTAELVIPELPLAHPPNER

B1: human CD80-Fc-NKG2A chimeric protein (Fc fusion)
chain: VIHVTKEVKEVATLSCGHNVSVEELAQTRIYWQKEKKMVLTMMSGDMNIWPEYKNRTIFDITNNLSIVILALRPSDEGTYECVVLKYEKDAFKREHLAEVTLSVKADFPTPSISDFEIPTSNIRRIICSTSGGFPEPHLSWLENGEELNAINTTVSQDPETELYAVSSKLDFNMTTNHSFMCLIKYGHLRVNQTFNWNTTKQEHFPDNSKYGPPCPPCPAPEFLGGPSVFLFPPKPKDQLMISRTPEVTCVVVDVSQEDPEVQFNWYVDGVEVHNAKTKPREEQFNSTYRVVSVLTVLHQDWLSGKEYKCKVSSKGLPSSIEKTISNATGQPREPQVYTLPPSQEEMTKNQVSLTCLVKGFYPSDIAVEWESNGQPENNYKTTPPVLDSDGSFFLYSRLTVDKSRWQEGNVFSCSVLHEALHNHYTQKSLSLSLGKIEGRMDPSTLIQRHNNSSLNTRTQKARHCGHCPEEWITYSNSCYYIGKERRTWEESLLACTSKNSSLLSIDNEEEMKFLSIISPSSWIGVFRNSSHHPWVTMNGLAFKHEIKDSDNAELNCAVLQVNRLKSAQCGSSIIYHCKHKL
notes: also called hCD80-Fc-NKG2A
Turning to B1, the binding result in assay [1] and in assay [3] was “binds” in each case. For the same molecule, the “EC50 (read off the curve)” value in assay [2] is roughly 0.9 µg/mL.

B2: mouse PD-1-Fc-NKG2A chimeric protein (Fc fusion)
chain: SGWLLEVPNGPWRSLTFYPAWLTVSEGANATFTCSLSNWSEDLMLNWNRLSPSNQTEKQAAFCNGLSQPVQDARFQIIQLPNRHDFHMNILDTRRNDSGIYLCGAISLHPKAKIEESPGAELVVTERILETSTRYPSPSPKPEGRFQGMVPRDCGCKPCICTVPEVSSVFIFPPKPKDVLTITLTPKVTCVVVDISKDDPEVQFSWFVDDVEVHTAQTQPREEQFNSTFRSVSELPIMHQDWLNGKEFKCRVNSAAFPAPIEKTISKTKGRPKAPQVYTIPPPKEQMAKDKVSLTCMITDFFPEDITVEWQWNGQPAENYKNTQPIMDTDGSYFVYSKLNVQKSNWEAGNTFTCSVLHEGLHNHHTEKSLSHSPGIIEGRMDTPYTEAKAQINSSMTRTHRDINYTLSSAQPCPHCPKEWISYSHNCYFIGMERKSWNDSLVSCISKNCSLLYIDSEEEQDFLQSLSLISWTGILRKGRGQPWVWKEDSIFKPKIAEILHDECNCAMMSASGLTADNCTTLHPYLCKCKFPI
notes: also called mPD-1-Fc-NKG2A; mPD1-Fc-NKG2A
In the case of B2, the 50% effective concentration (EC50 (read off the curve)) is roughly 0.08 µg/mL in assay [4], roughly 20 µg/mL in assay [5] and roughly 40 µg/mL in [6].

B3: human PD-1-Fc-hNKG2A chimeric protein (Fc fusion)
chain: not shown
notes: the Fc of the tested construct is therefore uncertain; also called hPD-1-Fc-hNKG2A; hPD-1-Fc-NKG2A
B3: the “EC50 (read off the curve)” value is roughly 1 µg/mL in assay [7] and roughly 20 µg/mL in [9]. The EC50 in assay [8] is 25.6 nM; in assay [10] it was roughly 174 nM; in assay [11], 9.64 nM; in assay [12], roughly 24.2 mM.

Broadly, the EC50 (read off the curve) is the concentration needed to bring the measured effect to its halfway point. The EC50 is the concentration giving half of the maximal effect.
